1 substance from paper PMC10829871 can be followed below.

The target of the experiment is Recombinant human LILRB4 protein (ECD, hFc Tag) (human) (UniProt Q8NHJ6). Briefly: BLI.
Chain of UniProt Q8NHJ6 (Q8NHJ6 22-259): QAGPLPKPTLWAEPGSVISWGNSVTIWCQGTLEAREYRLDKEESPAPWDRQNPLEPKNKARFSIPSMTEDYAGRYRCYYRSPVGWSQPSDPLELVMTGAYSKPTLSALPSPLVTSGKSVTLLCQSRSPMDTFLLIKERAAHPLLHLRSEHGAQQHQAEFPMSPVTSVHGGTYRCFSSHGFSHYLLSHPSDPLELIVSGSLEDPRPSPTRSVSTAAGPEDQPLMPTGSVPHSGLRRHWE

With “Recombinant human Galectin 8/LGALS8 protein (from UniProt O00214 1-317) (natural protein)”, the Kd came to 1.02 µM and the koff stood at 0.131 s⁻¹.
